Measurements published in publication PMC2954336, “Biophysical characterization of recombinant proteins: A key to higher structural genomics success” (Journal of Structural Biology, 2010).
Ends that are not written are not given here. fluorescein = fluorescein label on the N-terminus of the peptide (end-label); Me2 = dimethyl on Lys

Target: WDR5 (WD repeat domain 5) (UniProt P61964 1-334)
Experiment: fluorescence polarisation; 36 nM fluorescein-labeled peptide titrated with WDR5 from 30 nM to 30 uM; 100 mM potassium phosphate buffer pH 8, 0.01% Triton X-100; data fitted to a hyperbolic equation
Conditions: both partners purified

fluorescein-ARTK(Me2)QTARKST [11-mer fluorescein-labeled histone H3 peptide dimethylated on lysine 4 (F-H3K4Me2)]
Kd: 100 ± 9 nM
